Results reported in patent US20210130494A1 (ALETA BIOTHERAPEUTICS, published 2021).

T1: CD20 on stable transfectant line 293-CD20 (UniProt P11836 1-297)
T1 construct: whole, on cells; also called CD20 expressing 293 cells
T1 sequence (looked up): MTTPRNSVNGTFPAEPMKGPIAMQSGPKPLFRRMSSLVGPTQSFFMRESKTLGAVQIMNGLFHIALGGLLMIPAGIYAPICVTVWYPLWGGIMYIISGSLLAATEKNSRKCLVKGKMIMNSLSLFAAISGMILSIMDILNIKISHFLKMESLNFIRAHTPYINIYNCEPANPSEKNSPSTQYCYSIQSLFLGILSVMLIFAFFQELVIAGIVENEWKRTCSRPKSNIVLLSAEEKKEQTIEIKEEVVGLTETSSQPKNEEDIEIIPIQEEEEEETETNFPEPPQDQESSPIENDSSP

T2: Human BCMA Protein, Fc Tag (R&D Systems, Cat#193-BC-050) (human, UniProt Q02223 1-54)
T2 construct: Bought reagent; also called Human BCMA-Fc; BCMA-Fc
T2 sequence (looked up): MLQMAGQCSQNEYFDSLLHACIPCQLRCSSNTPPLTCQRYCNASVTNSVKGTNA


Tests used:
[1] = biological target: T1, CD20 on stable transfectant line …; test: flow cytometry, 293-CD20 cells, FMC63-PE or anti-HIS-PE
Procedure: (§1) If necessary, cells to be analyzed were detached with 0.5 mM EDTA in PBS followed by washing 2x with ice cold FACS buffer (1% BSA+0.1% Sodium Azide in PBS). Cells were resuspended in FACS buffer (5×10⁵/100 μl/test). Purified protein (up to 10 μg/ml as the final concentration), or 200 μl supernatant, was added to cells suspended in 100 μl FACS buffer followed by incubation at 4° C. for 30 minutes. After washing 2× with ice cold FACS buffer, cells were resuspended in FACS buffer (5×10⁵/100 μl/test) and incubated with detection antibody in FACS buffer at 4° C. for 30 minutes. If a secondary antibody was needed, cells were washed and the secondary antibody added at the desired concentration for 30 minutes at 4° C., for the detection step. Samples were then washed 2× with ice cold FACS buffer, cells were fixed with 2% paraformadehyde in PBS, and analyzed on the Accuri Flow Cytometer (BD Biosciences).

[2] = biological target: T3, FMC63 CAR-Flag (construct #140) on transfected 293T cells; test: flow cytometry, 293T cells transfected with #140, supernatant or 5 ug/ml purified #151/#152, anti-mouse Fc gamma-PE
T3 construct: FMC63 VL-VH-Flag-CD28 linker/transmembrane/ICD-4-1BB ICD-CD3z ICD; also called anti-CD19 FMC63 CAR; CAR19
T3 sequence (chain, as listed by the source limits assumed): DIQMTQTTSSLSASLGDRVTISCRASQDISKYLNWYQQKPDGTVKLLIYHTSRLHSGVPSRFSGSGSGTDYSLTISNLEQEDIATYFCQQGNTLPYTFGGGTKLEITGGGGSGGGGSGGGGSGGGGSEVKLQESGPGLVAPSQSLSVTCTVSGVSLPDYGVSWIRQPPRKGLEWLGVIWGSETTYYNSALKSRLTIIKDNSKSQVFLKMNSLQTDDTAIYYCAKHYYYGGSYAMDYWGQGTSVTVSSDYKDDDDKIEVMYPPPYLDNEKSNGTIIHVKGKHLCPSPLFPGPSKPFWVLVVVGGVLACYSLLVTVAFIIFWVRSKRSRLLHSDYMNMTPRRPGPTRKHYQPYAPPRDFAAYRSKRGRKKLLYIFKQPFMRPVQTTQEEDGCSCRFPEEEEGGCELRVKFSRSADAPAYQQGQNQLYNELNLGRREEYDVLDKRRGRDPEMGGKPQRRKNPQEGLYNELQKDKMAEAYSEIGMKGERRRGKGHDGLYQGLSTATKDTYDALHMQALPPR
Procedure: This was followed by another incubation with anti-mouse Fc gamma-PE for 30 min at 4° C. Cells were spun and washed as above, and fixed with 1% PFA in PBS. Fixed cells were analyzed on Accuri 6 for CAR expression binding (PE positive).

[3] = biological target: T2, Human BCMA Protein, Fc Tag (R&D …); test: ELISA, plate-bound Human BCMA-Fc (FIG. 66A), anti-HIS-HRP
Procedure: The plates were then blocked with 0.3% nonfat dry milk (NFD) in TBS (200 μl/well) for 1 hr at RT. Plates were then washed 3× with wash buffer (1× TBST: 0.1 M Tris, 0.5 M NaCl, 0.05% Tween20). Titrations were performed from undiluted cell culture supernatant or purified protein at 1.0 μg/ml with serial 3× dilutions, 100 μl per well and incubate for 1 h at RT. Dilution buffer is 1% BSA in lx TBS (0.1 M Tris, 0.5 M NaCl) followed by washing 3x with wash buffer. […] HRP-conjugated reagents were added at 1:2000, applied 100 μl per well, incubated at RT in dark for 1 hr. […] Plates were read at 405 nm when color had developed.

[4] = biological target: T1, CD20 on stable transfectant line …; test: flow cytometry, 293-CD20 cells, FMC63-PE
Procedure: as §1

[5] = biological target: T1, CD20 on stable transfectant line …; test: flow cytometry, 293-CD20 cells, 200 µl fusion protein, FMC63-PE
Procedure: as §1

Row | Binder | binding result [3] | also measured
1 | CD19-D1+2-Leu16 scFv (VH/VL) (construct #83) (other, C-terminal His tag) PEEPLVVKVEEGDNAVLQCLKGTSDGPTQQLTWSRESPLKPFLKLSLGLPGLGIHMRPLAIWLFIFNVSQQMGGFYLCQPGPPSEKAWQPGWTVNVEGSGELFRWNVSDLGGLGCGLKNRSSEGPSSPSGKLMSPKLYVWAKDRPEIWEGEPPCLPPRDSLNQSLSQDLTMAPGSTLWLSCGVPPDSVSRGPLSWTHVHPKGPKSLLSLELKDDRPARDMWVMETGLLLPRATAQDAGKYYCHRGNLTMSFHLEITARPGGGGSGGGGSGGGGSGGGGSMAQVKLQESGAELVKPGASVKMSCKASGYTFTSYNMHWVKQTPGQGLEWIGAIYPGNGDTSYNQKFKGKATLTADKSSSTAYMQLSSLTSEDSADYYCARSNYYGSSYWFFDVWGQGTTVTVSSGGGGSGGGGSGGGGSDIELTQSPTILSASPGEKVTMTCRASSSVNYMDWYQKKPGSSPKPWIYATSNLASGVPARFSGSGSGTSYSLTISRVEAEDAATYYCQQWSFNPPTFGGGTKLEIKRAAAHHHHHH |  | binding result [1]: binds
2 | anti-FMC63 antibody 136.20.1 (constructs #151/#152) (antibody, V domains shown, supernatant or purified protein (5 ug/ml); also called anti-FMC63 (anti-Id) antibody; secreted anti-FMC63 antibody) VH: EVKLVESGGGLVQPGGSLKLSCAASGFDFSRYWMSWVRQAPGKGLEWIGEINLDSSTINYTPSLKDKFIISRDNAKNTLYLQMSKVRSEDTALYYCARRYDAMDYWGQGTSVTVSS VL: not shown |  | binding result [2]: binds
3 | CD19-D1+2-C11D5.3 scFv (VH/VL) (construct #92) (other, C-terminal His tag) PEEPLVVKVEEGDNAVLQCLKGTSDGPTQQLTWSRESPLKPFLKLSLGLPGLGIHMRPLAIWLFIFNVSQQMGGFYLCQPGPPSEKAWQPGWTVNVEGSGELFRWNVSDLGGLGCGLKNRSSEGPSSPSGKLMSPKLYVWAKDRPEIWEGEPPCLPPRDSLNQSLSQDLTMAPGSTLWLSCGVPPDSVSRGPLSWTHVHPKGPKSLLSLELKDDRPARDMWVMETGLLLPRATAQDAGKYYCHRGNLTMSFHLEITARPGGGGSGGGGSGGGGSGGGGSQIQLVQSGPELKKPGETVKISCKASGYTFTDYSINWVKRAPGKGLKWMGWINTETREPAYAYDFRGRFAFSLETSASTAYLQINNLKYEDTATYFCALDYSYAMDYWGQGTSVTVSSGSTSGSGKPGSGEGSTKGDIVLTQSPPSLAMSLGKRATISCRASESVTILGSHLIHWYQQKPGQPPTLLIQLASNVQTGVPARFSGSGSRTDFTLTIDPVEEDDVAVYYCLQSRTIPRTFGGGTKLEIKGGGGSGGGGSGGGGSHHHHHH | binds | 
4 | CD19-D1+2-Leu16 scFv (VL/VH) (construct #85) (other, C-terminal His tag) PEEPLVVKVEEGDNAVLQCLKGTSDGPTQQLTWSRESPLKPFLKLSLGLPGLGIHMRPLAIWLFIFNVSQQMGGFYLCQPGPPSEKAWQPGWTVNVEGSGELFRWNVSDLGGLGCGLKNRSSEGPSSPSGKLMSPKLYVWAKDRPEIWEGEPPCLPPRDSLNQSLSQDLTMAPGSTLWLSCGVPPDSVSRGPLSWTHVHPKGPKSLLSLELKDDRPARDMWVMETGLLLPRATAQDAGKYYCHRGNLTMSFHLEITARPGGGGSGGGGSGGGGSGGGGSDIELTQSPTILSASPGEKVTMTCRASSSVNYMDWYQKKPGSSPKPWIYATSNLASGVPARFSGSGSGTSYSLTISRVEAEDAATYYCQQWSFNPPTFGGGTKLEIKRGGGGSGGGGSGGGGSMAQVKLQESGAELVKPGASVKMSCKASGYTFTSYNMHWVKQTPGQGLEWIGAIYPGNGDTSYNQKFKGKATLTADKSSSTAYMQLSSLTSEDSADYYCARSNYYGSSYWFFDVWGQGTTVTVSSAAAHHHHHH |  | binding result [4]: no binding (tested: 200 µl)
5 | CD19-ECD-Leu16 scFv (VH/VL) (construct #63) (other, C-terminal His tag; also called CD19 full-length extracellular domain-anti-CD20 Leu16 scFv VH-VL-His fusion protein) PEEPLVVKVEEGDNAVLQCLKGTSDGPTQQLTWSRESPLKPFLKLSLGLPGLGIHMRPLAIWLFIFNVSQQMGGFYLCQPGPPSEKAWQPGWTVNVEGSGELFRWNVSDLGGLGCGLKNRSSEGPSSPSGKLMSPKLYVWAKDRPEIWEGEPPCLPPRDSLNQSLSQDLTMAPGSTLWLSCGVPPDSVSRGPLSWTHVHPKGPKSLLSLELKDDRPARDMWVMETGLLLPRATAQDAGKYYCHRGNLTMSFHLEITARPVLWHWLLRTGGWKGGGGSGGGGSGGGGSGGGGSEVQLQQSGAELVKPGASVKMSCKASGYTFTSYNMHWVKQTPGQGLEWIGAIYPGNGDTSYNQKFKGKATLTADKSSSTAYMQLSSLTSEDSADYYCARSNYYGSSYWFFDVWGAGTTVTVSSGSTSGGGSGGGSGGGGSSDIVLTQSPAILSASPGEKVTMTCRASSSVNYMDWYQKKPGSSPKPWIYATSNLASGVPARFSGSGSGTSYSLTISRVEAEDAATYYCQQWSFNPPTFGGGTKLEIKHHHHHH |  | binding result [5]: binds
6 | C11D5.3 scFv (VH/VL) (construct #90) (scFv, C-terminal His tag) scFv: QIQLVQSGPELKKPGETVKISCKASGYTFTDYSINWVKRAPGKGLKWMGWINTETREPAYAYDFRGRFAFSLETSASTAYLQINNLKYEDTATYFCALDYSYAMDYWGQGTSVTVSSGSTSGSGKPGSGEGSTKGDIVLTQSPPSLAMSLGKRATISCRASESVTILGSHLIHWYQQKPGQPPTLLIQLASNVQTGVPARFSGSGSRTDFTLTIDPVEEDDVAVYYCLQSRTIPRTFGGGTKLEIKGGGGSGGGGSGGGGSHHHHHH | binds | 
7 | C11D5.3 scFv (VL/VH) (construct #89) (scFv, C-terminal His tag) scFv: DIVLTQSPPSLAMSLGKRATISCRASESVTILGSHLIHWYQQKPGQPPTLLIQLASNVQTGVPARFSGSGSRTDFTLTIDPVEEDDVAVYYCLQSRTIPRTFGGGTKLEIKGSTSGSGKPGSGEGSTKGQIQLVQSGPELKKPGETVKISCKASGYTFTDYSINWVKRAPGKGLKWMGWINTETREPAYAYDFRGRFAFSLETSASTAYLQINNLKYEDTATYFCALDYSYAMDYWGQGTSVTVSSGGGGSGGGGSGGGGSHHHHHH | binds | 
8 | CD19-D1+2-C11D5.3 scFv (VL/VH) (construct #91) (other, C-terminal His tag) PEEPLVVKVEEGDNAVLQCLKGTSDGPTQQLTWSRESPLKPFLKLSLGLPGLGIHMRPLAIWLFIFNVSQQMGGFYLCQPGPPSEKAWQPGWTVNVEGSGELFRWNVSDLGGLGCGLKNRSSEGPSSPSGKLMSPKLYVWAKDRPEIWEGEPPCLPPRDSLNQSLSQDLTMAPGSTLWLSCGVPPDSVSRGPLSWTHVHPKGPKSLLSLELKDDRPARDMWVMETGLLLPRATAQDAGKYYCHRGNLTMSFHLEITARPGGGGSGGGGSGGGGSGGGGSDIVLTQSPPSLAMSLGKRATISCRASESVTILGSHLIHWYQQKPGQPPTLLIQLASNVQTGVPARFSGSGSRTDFTLTIDPVEEDDVAVYYCLQSRTIPRTFGGGTKLEIKGSTSGSGKPGSGEGSTKGQIQLVQSGPELKKPGETVKISCKASGYTFTDYSINWVKRAPGKGLKWMGWINTETREPAYAYDFRGRFAFSLETSASTAYLQINNLKYEDTATYFCALDYSYAMDYWGQGTSVTVSSGGGGSGGGGSGGGGSHHHHHH | binds | 
